Measured values as given in CN117946265A (HISUN BIO PHARMACEUTICAL CO LTD; ZHEJIANG BORUI BIOLOGICAL …, dated 2024).
Residue numbers refer to the chain shown, from its start. Values joined by “and” are separate entries in the source; they are usually repeats but may differ in a detail not shown here. Identical values can stand only once.

T1: 人CX3CL1胞外区蛋白 CX3CL1(Q25-Q341)-6xHis (human, UniProt P78423 25-341)
T1 sequence: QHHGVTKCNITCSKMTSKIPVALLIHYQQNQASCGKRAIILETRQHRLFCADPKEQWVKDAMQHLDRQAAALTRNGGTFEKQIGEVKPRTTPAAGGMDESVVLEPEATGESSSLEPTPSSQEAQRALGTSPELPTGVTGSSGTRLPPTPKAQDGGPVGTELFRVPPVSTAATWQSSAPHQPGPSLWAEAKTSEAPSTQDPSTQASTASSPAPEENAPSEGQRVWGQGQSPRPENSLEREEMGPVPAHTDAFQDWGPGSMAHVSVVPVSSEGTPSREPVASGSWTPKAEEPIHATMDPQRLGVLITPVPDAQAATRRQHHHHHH

B1: C032 (antibody, human IgG2, kappa, V domains shown)
VH: EVQLQQSGPELVKPGASVKISCKASGYTFTDYYMNWVKQSHGKSLEWIGDINPNNGGTSYNQKFKGKATLTVDKSSSTAYMELRSLTSEDSAVYYCASSGNSYVDYWGQGTTLTVSS
VL: DIVMTQSHKFMSTSVGDRVSITCKASQDVSTAVAWYQQKPGQSPKLLIYWASTRHTGVPDRFTGSGSGTDYTLTISSVQAEDLALYYCQQHYSSPYTFGGGTKLEIKR
notes: Human-mouse chimeric antibody of mAb032 with human IgG2 constant region, expressed in CHOK1; also called 嵌合抗体C032
B2: mAb022 (antibody, V domains shown)
VH: B1 VH with S59N, Y94F
VL: DIVMTQSHKFMSTSVGDRVNITCKASQDVSTAVAWYQQKPGQSPKLLIYWASTRHTGVPDRFTGSGSGTDYTLTISSVQAEDLALYYCQQHYSSPYTFGGGTKLEIK
notes: Murine monoclonal antibody purified from hybridoma supernatant; also called 15F7B2
B3: C022 (antibody, human IgG2, kappa, V domains shown)
VH: B1 VH with S59N, Y94F
VL: B1 VL with S20N
notes: Human-mouse chimeric antibody of mAb022 with human IgG2 constant region, expressed in CHOK1; also called 嵌合抗体C022
B4: mAb032 (antibody, V domains shown)
VH: B1 VH
VL: B2 VL with N20S
notes: Murine monoclonal antibody purified from hybridoma supernatant; also called 18H6F1
B5: C032NA (antibody, human IgG2, kappa, V domains shown)
VH: B1 VH with G56A
VL: B1 VL
notes: Chimeric IgG2 mutant of C032 removing the NG hot spot of HCDR2 (NG to NA)
B6: C032QG (antibody, human IgG2, kappa, V domains shown)
VH: B1 VH with N55Q
VL: B1 VL
notes: Chimeric IgG2 mutant of C032 removing the NG hot spot of HCDR2 (NG to QG)
B7: HumAb022-4 (antibody, human IgG2, kappa, V domains shown)
VH: EVQLVQSGAEVKKPGATVKISCKASGYTFTDYYMNWVQQAPGKSLEWMGDINPNQGGTNYNQKFKGRVTLTVDKSTSTAYMELSSLRSEDTAVYYCASSGNSYVDYWGQGTTVTVSS
VL: DIQMTQSPSSLSASVGDRVTITCKASQDVSTAVAWYQQKPGKAPKLLLYWASTRHTGVPSRFSGSGSGTDYTLTISSLQPEDFATYYCQQHYSSPYTFGGGTKVEIKR
notes: Full-length humanized IgG2/kappa antibody
B8: mAb017 (antibody, V domains shown)
VH: QIQLVQSGPELKKPGETVKISCKASVYTFTEYAMHWVKQAPGKGFKWMGWINTNSGEPTYADDFKGRFAFSLETSASTAYLQINNLKNEDTATYFCGRGRVVGSFDYWGQGTTLTVSS
VL: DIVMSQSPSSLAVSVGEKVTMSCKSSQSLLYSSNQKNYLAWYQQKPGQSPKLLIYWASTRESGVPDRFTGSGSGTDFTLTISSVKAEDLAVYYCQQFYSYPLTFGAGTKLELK
notes: Murine monoclonal antibody purified from hybridoma supernatant; also called 36C7-1G2
B9: Tab#1 (antibody, human IgG2, kappa, V domains shown)
VH: QVQLVQSGAEVKKPGASVKVSCKASGYTFTNYYIHWVKQAPGQGLEWIGWIYPGDGSPKFNERFKGRTTLTADKSTNTAYMLLSSLRSEDTAVYFCATGPTDGDYFDYWGQGTTVTVSS
VL: DIQMTQSPSSLSASVGDRVTITCRASGNIHNFLAWYQQKPGKAPKLLIYNEKTLADGVPSRFSGSGSGTDYTLTISSLQPEDFATYFCQQFWSTPYTFGGGTKVEIKR
notes: also called Quetmolimab; CX3CL1阳性对照抗体
B10: HumAb032-4 (antibody, human IgG2, kappa, V domains shown)
VH: B7 VH with N59S
VL: B7 VL
notes: as for B7

The binders below were run against T1, 人CX3CL1胞外区蛋白 CX3CL1(Q25-Q341)-6xHis (assay: cell-based or functional assay).

抑制cAMP活性 IC50 | 抑制cAMP活性 MAX | Binder
3.4 nM | 95.8 | B1
0.8 nM | 105 | B2
2.41 nM and 3.28 nM |  | B3
1.07 nM | 115 | B4
3.63 nM | 92.5 | B5
3.96 nM | 97 | B6
2.69 nM | 100 | B7
0.7 nM | 100 | B8
5.69 nM and 4.07 nM |  | B9

Biological target: T1, 人CX3CL1胞外区蛋白 CX3CL1(Q25-Q341)-6xHis
Assay: cell-based or functional assay
Remark: another data set of the same source

抑制细胞迁移活性 IC50 [nM] | Binder
2.49 | B1
7.19 | B2
8.72 | B4
4 | B5
2.27 | B6
0.299 | B7
7.55 | B8
19 | B9

What follows are binders tested against T1, 人CX3CL1胞外区蛋白 CX3CL1(Q25-Q341)-6xHis (assay: FACS competition: antibody blocks huCX3CL1-His binding to CHOK1-hCX3CR1 cells).

IC50 | Binder
0.731 nM | B1
7.6 nM | B2
0.885 nM and 1.7 nM | B3
11.5 nM | B4
0.865 nM | B5
0.811 nM and 1.49 nM | B6
1.22 nM | B10
1.27 nM | B7
6.1 nM | B8
1.96 nM | B9
